Experimental data: patent US8962697B2, “Bioreponsive polymers” (Interface Biologics Inc., priority 2006, dated 2015)

What was measured:
[1] = target: T1, MMP-9 (Homo sapiens, UniProt P14780); assay: MMP-9 bioresponsive degradation assay; assay type: biochemical; conditions: 100 nM MMP-9, 1 mM substrate, room temperature, 3 hr
T1 construct: purchased Chemicon, Temecula, Calif
Protocol: The hydrolysis of the substrates were done in MMPs activation buffer. […] 100 nM MPP-9 was added in this activating buffer and incubated at 37° C. for 4 hr. to activate enzyme. After activating, the 1 mM substrates were added to be hydrolysis at room temperature for 3 hr.

[2] = target: V8 proteinase (Staphylococcus aureus, UniProt P0C1U8); conditions: 100 nM V8 proteinase, 1 mM substrate, 37° C., 3 hr
Sequence of V8 proteinase (P0C1U8 69-336): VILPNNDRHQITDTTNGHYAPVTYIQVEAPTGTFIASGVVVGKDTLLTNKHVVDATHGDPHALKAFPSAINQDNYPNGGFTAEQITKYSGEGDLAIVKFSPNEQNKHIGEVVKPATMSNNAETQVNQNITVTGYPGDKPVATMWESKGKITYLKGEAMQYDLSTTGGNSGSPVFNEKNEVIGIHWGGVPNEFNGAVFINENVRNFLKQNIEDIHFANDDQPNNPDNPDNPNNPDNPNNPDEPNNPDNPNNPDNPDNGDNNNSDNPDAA
Protocol: The hydrolysis of the substrate was performed in V8 proteinase activation buffer. The buffer contains 100 mM Tris-HCL, 1 mM CaCl2, pH 7.8, and 10 mM o-phenanthroline. 100 nM V8 proteinase and 1 mM substrate were added in the buffer, and then incubated at 37° C. for 3 hr.
(§1) All control degradation profiles was conducted as outlined in EXAMPLE 22 through EXAMPLE 26 utilizing the control peptides […] and PRRICV, identified as LAR-7047 and LAR-7048 respectively, as substrates.

[3] = target: aureolysin (Staphylococcus aureus, UniProt P81177); conditions: 100 nM aureolysin, 1 mM substrate, 37° C., 3 hr
Sequence of aureolysin (P81177 209-509): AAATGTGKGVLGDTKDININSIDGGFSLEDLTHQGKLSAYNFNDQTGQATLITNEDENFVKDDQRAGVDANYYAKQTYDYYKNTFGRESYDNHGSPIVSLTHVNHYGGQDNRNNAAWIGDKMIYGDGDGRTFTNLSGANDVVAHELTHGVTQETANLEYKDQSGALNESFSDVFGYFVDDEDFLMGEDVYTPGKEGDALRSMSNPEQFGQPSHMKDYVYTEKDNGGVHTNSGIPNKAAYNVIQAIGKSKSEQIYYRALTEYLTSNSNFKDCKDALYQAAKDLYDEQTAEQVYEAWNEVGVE
Protocol: The hydrolysis of the substrate was performed in aureolysin activation buffer. The buffer contains 100 mM Tris-HCL, 1 mM CaCL2, pH 7.8, and 1 mM 3,4-dichloroisoumarine. 100 nM aureolysin and 1 mM substrate were added in the buffer, and then incubated at 37° C. for 3 hr.
as §1

T1 sequence (P14780 107-707 limits assumed): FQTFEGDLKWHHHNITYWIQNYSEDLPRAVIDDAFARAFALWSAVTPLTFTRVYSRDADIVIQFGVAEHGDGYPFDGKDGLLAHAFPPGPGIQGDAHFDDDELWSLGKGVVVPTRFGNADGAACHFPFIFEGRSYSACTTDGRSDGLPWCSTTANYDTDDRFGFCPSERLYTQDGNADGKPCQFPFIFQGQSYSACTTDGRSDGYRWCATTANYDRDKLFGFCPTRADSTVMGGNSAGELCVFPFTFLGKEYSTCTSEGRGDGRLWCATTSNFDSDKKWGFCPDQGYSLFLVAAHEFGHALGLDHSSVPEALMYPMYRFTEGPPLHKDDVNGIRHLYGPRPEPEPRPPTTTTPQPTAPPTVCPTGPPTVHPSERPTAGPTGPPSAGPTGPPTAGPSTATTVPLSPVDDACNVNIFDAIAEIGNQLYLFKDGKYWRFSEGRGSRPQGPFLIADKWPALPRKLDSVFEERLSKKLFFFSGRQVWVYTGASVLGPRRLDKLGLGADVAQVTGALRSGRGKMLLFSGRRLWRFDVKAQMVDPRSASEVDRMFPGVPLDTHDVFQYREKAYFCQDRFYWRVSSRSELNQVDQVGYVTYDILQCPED

Substance | Degradation of peptide substrate by MMP-9 (fragment observed) [1] | Degradation of peptide substrate by V8 proteinase [2] | Degradation of peptide substrate by aureolysin [3]
Pro-arg-arg-arg-arg-pro-arg-gln-ile-thr-ala (PRRRRPRQITA) [LAR-7009, peptide targeted to MMP-9 (inflammation)] | produced specific fragment pick: 1121.66 corresponding to PRRRRPRQ sequence | – | –
Pro-arg-arg-ile-sys-val (PRRICV) [LAR-7048] | No degradation | No degradation | No degradation
val-phe-phe-arg-arg-gln-thr-ala (VFFRRQTA) [LAR-7047] | No degradation | No degradation | No degradation
